Laboratory results taken from paper PMC5534098, “Modulation of chromatin structure by the FACT histone chaperone complex regulates HIV-1 integration” (Retrovirology, 2017).

Target: T1, FACT (FAcilitates Chromatin Transcription) complex, recombinant purified (human | , UniProt Q9Y5B9 1-1047; Q08945 1-709)
T1 construct: also called FACT complex; source: recombinant, purified as reported before [17, 18]
Test: pull-down
Details: both partners purified

T1 sequence (Q9Y5B9 whole entry, chain 1 of 2): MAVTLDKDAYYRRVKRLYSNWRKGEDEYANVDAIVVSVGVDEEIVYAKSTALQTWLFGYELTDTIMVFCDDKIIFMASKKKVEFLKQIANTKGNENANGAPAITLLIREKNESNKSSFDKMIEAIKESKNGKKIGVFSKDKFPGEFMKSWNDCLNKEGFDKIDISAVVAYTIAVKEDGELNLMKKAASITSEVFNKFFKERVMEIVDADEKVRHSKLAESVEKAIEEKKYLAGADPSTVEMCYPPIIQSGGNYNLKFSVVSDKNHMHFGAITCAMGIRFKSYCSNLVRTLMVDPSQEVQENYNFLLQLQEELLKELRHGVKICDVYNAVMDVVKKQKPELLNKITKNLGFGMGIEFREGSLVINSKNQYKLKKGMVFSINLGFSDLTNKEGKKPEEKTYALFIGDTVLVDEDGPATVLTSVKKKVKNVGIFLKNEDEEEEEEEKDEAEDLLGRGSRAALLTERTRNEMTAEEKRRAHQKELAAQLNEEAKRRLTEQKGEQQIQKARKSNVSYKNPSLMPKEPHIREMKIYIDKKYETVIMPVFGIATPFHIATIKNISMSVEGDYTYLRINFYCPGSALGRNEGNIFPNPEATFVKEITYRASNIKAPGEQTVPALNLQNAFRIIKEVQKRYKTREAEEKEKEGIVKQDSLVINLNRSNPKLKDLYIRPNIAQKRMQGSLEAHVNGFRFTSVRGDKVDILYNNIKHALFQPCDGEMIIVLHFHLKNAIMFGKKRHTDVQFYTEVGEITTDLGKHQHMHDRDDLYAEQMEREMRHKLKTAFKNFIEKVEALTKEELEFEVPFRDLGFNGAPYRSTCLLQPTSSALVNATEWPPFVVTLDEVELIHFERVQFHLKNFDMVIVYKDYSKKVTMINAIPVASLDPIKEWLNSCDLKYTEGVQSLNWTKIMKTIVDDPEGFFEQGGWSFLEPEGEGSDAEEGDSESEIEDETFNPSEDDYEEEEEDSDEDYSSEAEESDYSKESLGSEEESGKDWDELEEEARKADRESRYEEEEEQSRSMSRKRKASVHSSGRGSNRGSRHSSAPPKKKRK
T1 sequence (Q08945 whole entry, chain 2 of 2): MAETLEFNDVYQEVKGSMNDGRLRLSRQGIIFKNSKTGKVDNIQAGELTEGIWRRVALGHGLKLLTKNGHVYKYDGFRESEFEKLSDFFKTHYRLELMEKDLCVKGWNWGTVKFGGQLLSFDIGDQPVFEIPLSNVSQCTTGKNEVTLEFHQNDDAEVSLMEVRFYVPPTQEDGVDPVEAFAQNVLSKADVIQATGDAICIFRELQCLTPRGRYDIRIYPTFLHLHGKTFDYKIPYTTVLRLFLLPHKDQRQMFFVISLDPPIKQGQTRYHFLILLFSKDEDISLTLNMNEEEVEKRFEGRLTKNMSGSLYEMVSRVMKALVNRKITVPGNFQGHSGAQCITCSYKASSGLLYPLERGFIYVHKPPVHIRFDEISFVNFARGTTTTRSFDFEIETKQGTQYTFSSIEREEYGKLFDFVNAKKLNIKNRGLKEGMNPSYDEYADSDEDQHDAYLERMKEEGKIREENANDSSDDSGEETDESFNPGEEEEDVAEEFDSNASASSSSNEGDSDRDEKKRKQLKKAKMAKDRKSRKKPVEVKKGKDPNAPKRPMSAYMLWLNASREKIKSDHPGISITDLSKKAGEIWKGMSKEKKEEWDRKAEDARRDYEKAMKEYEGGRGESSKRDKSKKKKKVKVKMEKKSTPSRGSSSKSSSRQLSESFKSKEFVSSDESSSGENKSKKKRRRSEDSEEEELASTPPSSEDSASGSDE

binding result: binds
B1: LEDGF/p75-GST (natural protein)
chain: not shown
